Experimental data: US20260201015A1 (University of Washington, published 2026)
“And” between values parts separate entries of the source, which are not always exact repeats. Identical values can stand only once. One block for each binder: values may come before it.

Columns and labels:
secretin (SCT) = target: T1, secretin (SCT) (UniProt P09683 28-54, fluorescently labeled (FAM or TAMRA) in FP assays, site not stated); assay: fluorescence polarization
T1 peptide (looked up): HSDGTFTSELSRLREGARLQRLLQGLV
Description: (§1) Fluorescence polarization binding assays were carried out in 96-well plates (Corning 3686), with two-fold serial dilution of designed peptide binders in the presence of 0.5 nM fluorescently labeled peptide targets. Protein and peptide were diluted from their stock concentration into 20 mM Tris-HCl pH 8, 100 mM NaCl, 0.1% v/v Tween 20, and the protein was titrated in 2-fold serial dilutions onto constant peptide. After incubating the peptide and binder for one hour at room temperature, the fluorescence polarization was measured at the excitation and emission wavelengths of the FAM dye (485/530 nm) or the TAMRA dye (530/590 nm), in a Synergy Neo2 multi-mode plate reader. Titrations were conducted in replicate, and the Kd was fitted with SciPy¹⁸. Specifically, curves were fit to N observations of an observed signal, Signalᵢ, at titrated concentrations according to the following equation: […]

glucagon (GCG) [1] = target: T2, glucagon (GCG) (UniProt P01275 53-81, fluorescently labeled (FAM or TAMRA) in FP assays, site not stated; biotinylated in yeast display); assay: fluorescence polarization
T2 sequence (P01275 53-81 limits assumed): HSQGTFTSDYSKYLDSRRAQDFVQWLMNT
Description: as §1

[2] = target: T3, Glucagon-like peptide 1 (GLP1) (UniProt P01275 98-128, fluorescently labeled (FAM or TAMRA) in FP assays, site not stated); assay: fluorescence polarization titration
T3 peptide (looked up): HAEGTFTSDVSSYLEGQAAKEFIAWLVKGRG
Description: as §1

[3] = target: T3, Glucagon-like peptide 1 (GLP1); assay: fluorescence polarization (FIG. 7a)
Description: as §1

[4] = target: T4, Gastric inhibitory polypeptide (GIP) (UniProt P09681 52-93, fluorescently labeled (FAM or TAMRA) in FP assays, site not stated); assay: fluorescence polarization titration
T4 peptide (looked up): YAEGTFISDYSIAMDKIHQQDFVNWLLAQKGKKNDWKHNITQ
Description: as §1

[5] = target: T4, Gastric inhibitory polypeptide (GIP); assay: fluorescence polarization (FIG. 7b)
Description: as §1

neuropeptide Y (NPY) [6] = target: T5, neuropeptide Y (NPY) (UniProt P01303 29-64, fluorescently labeled (FAM or TAMRA) in FP assays, site not stated; biotinylated in yeast display); assay: fluorescence polarization
Description: as §1

peptide YY (PYY) = peptide YY (PYY) (UniProt P10082 29-64, limits assumed, fluorescently labeled (FAM or TAMRA) in FP assays, site not stated); assay: fluorescence polarization
Sequence of peptide YY (PYY) (P10082 29-64 limits assumed): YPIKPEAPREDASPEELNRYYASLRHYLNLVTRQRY
Description: as §1

[7] = target: T6, parathyroid hormone (PTH) peptide (UniProt P01270 32-65, limits assumed, TAMRA label in FP assays (PTH-TAMRA), site not stated; biotinylated in yeast display); assay: FP against the NanoBiT estimate for the starting parametric binder
T6 construct: In the NanoBiT assay the peptide was genetically fused to lgBiT; also called PTH-TAMRA peptide
T6 peptide (looked up): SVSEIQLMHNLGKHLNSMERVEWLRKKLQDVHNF

[8] = target: T6, parathyroid hormone (PTH) peptide; assay: fluorescence polarization, binder titrated onto labeled peptide
Description: as §1

[9] = target: PTH related peptide (PTHrp) (UniProt P12272 37-70, limits assumed, fluorescently labeled (FAM or TAMRA) in FP assays, site not stated); assay: fluorescence polarization
Sequence of PTH related peptide (PTHrp) (P12272 37-70 limits assumed): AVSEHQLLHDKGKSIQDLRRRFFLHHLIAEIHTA
Description: as §1

[10] = target: T6, parathyroid hormone (PTH) peptide; assay: fluorescence polarization
Description: as §1

BIM BH3 peptide (Bim) = target: T7, BIM BH3 peptide (Bim) (UniProt O43521 141-166, limits assumed, fluorescently labeled (FAM or TAMRA) in FP assays, site not stated; biotinylated in yeast display); assay: fluorescence polarization
T7 construct: domain: BH3
T7 sequence (O43521 141-166 limits assumed): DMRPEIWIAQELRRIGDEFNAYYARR
Description: as §1

glucagon (GCG) [11] = target: T2, glucagon (GCG); assay: fluorescence polarization titration (FIG. 6a)
Description: as §1

neuropeptide Y (NPY) [12] = target: T5, neuropeptide Y (NPY); assay: fluorescence polarization titration (FIG. 6b)
Description: as §1

Kd (secretin (SCT)): 3.95 nM and 2.7 nM | Kd (glucagon (GCG) [1]): 12 nM | fold selectivity for SCT over GCG (glucagon (GCG) [1]): 4 fold
B1: SCT_A02 (Sequence threading), threaded SCT binder, SEQ ID NO: 5 (designed binder)
chain: SEELEERLREARERLEEARERLEEAREEGDLREMARALLEEARAVLEIARVAAEAGDDEALREAARRAGEVIRRAGEVGLRAAEEGDTETIREAMLAILEAQRASAVIALHLARDDPEVAEALRVIERLLRTAERALREGQLEVARLATEAVEALADAILRAREIGRPELVREAARLAEEARRLLEAALEALRAGDEEGARERLARARELIREIRERVRRA
notes: also called SCT design

Kd (neuropeptide Y (NPY) [6]): 5.29 nM and 5.6 nM | binding result (peptide YY (PYY)): no binding
B4: NPY_C5 (RF Diffusion/Partial diffusion), partially diffused NPY binder, SEQ ID NO: 9 (designed binder)
chain: GMEERRKELLEKLKKLKEEVVELFRELAQALRDGASKERLEEIRERAEKLAEEAKKVAEELEKLAEGDAVLQLYLAEAYALEAAALTIEAVAAAELGASKEELEKIKEKIEEALKKAEEAMKKALAEAKARGRERLVRLIEEARKEFEKLSKAIKELLEQV

fold improvement in affinity over the starting PTH binder [7]: ~1000 fold | Kd [8]: 6.1 nM
B5: PTH_B10 (RFjoint), inpainted PTH binder, SEQ ID NO: 2 (designed binder)
chain: SFELLEKLIELSKELYEVAKKYIETGDPELKKKLEEILKKIEEAYKELLESDAHPLEKALAKLILAEAYVVKSFAYISSGKDLEKAQEYLDKAKEILEELLKLLEELKKEETDPEKLEIIEELEKIAEELLKEIEE
notes: Expressed in E. coli, purified on Ni-NTA and by SEC

binding result [9]: no binding | Kd [10]: < 0.5 nM
B7: PTH_D08, fully diffused PTH binder (RF Diffusion), SEQ ID NO: 10 (designed binder)
chain: MREKLEEMLEEFNEVIDELIEITKEDAPELEELRERAEEAVENERLDELEEILDELEVIILEAMFRDLSAAIEMTKAKNDKEKLKELLKQLEELEKRIKELLERAKKRGNKKIIEKLEKLLKEVEKLKKEIEEYLK

Kd (peptide YY (PYY)): 24.5 nM
B9: PPY_A04 (RF Diffusion_flex), flexibly diffused PYY binder, SEQ ID NO: 12 (designed binder)
chain: GLEEAEKLLEEIFANFEEIVELIKKNIGTERGKKLLKVFVATVDLILARLEQGADLAELAELVKEIAELAKDEEGLEEAEKLVKELTAAR

The next lines start with the binder.

B2: GLP1_B04 (Sequence threading), SEQ ID NO: 7 (designed binder)
chain: SPEEEARRAAREAERAAREAREAARRLGDEESVRVAERLEREARRAERERDLELARRVLRAAEALRLALEGELLAREQGDELGVVVARMITLAARDSALGRGTPELARLLLRVARALLEGDLEEVVRSLAEIAKREIGTERALLAVEAIKLVALESIEEGDFETAELAIEKLREIAEEFEGTEVAEKAREAIEEIEKKKREAE
Kd [2]: 68.8 nM | Kd [3]: < 100 nM

B3: GIP_A08 (Sequence threading), SEQ ID NO: 6 (designed binder)
chain: SPKEKAERLIKEAKEAAEKAKEAAERSGLEEAKKAAEELTKLLEEAAARVAADPEDETKLRALEKIVEAAKEAVKALEVAIESGDEQLIRAALSLVEAAVHLAKALLAKPESPLVDFGFELLKLAAKTLAAYAEGEDVDKIALKLKAISAMAEALRLALAGDLERAARAAEEAVRYAIEAGDKELLRLAAEVAAYIARLAEEAGLEEVARRAREAAERAREAAK
Kd [4]: 6.96 nM | Kd [5]: < 100 nM

B6: GCG_C09 (RF Diffusion/Partial diffusion), partially diffused GCG binder, SEQ ID NO: 8 (designed binder)
chain: SMEKLAEIMQEIIEAYQEVKDAFFKFIKAVHEGAPEEELKKYLEKMKEALEKMKELLERLEKEAKKVIEENKDKKLELKVLLMLRLAYLLLKVSIELTKIAAEKLGDKELVEELEKESKEVEKKIKELEERIKKLLEEVDDEELKEAYKEVEEMEKEAEKFLEKMRKV
fold weaker binding to SCT than to GCG (secretin (SCT)): 10 fold | binding result (glucagon (GCG) [1]): binds

B8: BIM_E09 (RF Diffusion), fully diffused Bim binder, SEQ ID NO: 11 (designed binder)
chain: EEERKEKREKVRAGLKRAIAELPAEVAARCLALLDDASDEEFIEAVLEVLEAMREALVAMAREGRLDAVRRATSHINEVLVDAAELALEKGREYFRRLCLIVCDMMIELIRLEPEQTPELRRIRERLEEIRRRLE
Kd (BIM BH3 peptide (Bim)): < 0.5 nM

B10: GCG_A04 (RFjoint), inpainted GCG binder, SEQ ID NO: 3 (designed binder)
chain: MLDELFSLLNKMFELSDKYRELRKELRKAIESGAPEEELRELLEKMLEIAKKLLELTKELKKLVEDVLKNNPDPVERAKAVLLYAVGVHILYSESSELEVIAERLGFKDIAEKAKEIADKARELKEEVKRKLREIREEVPDPEIRKAAEEAIEMLESNDKRLKEFRKL
Kd (glucagon (GCG) [11]): 231 nM

B11: NPY_A9 (RFjoint), inpainted NPY binder, SEQ ID NO: 4 (designed binder)
chain: GAAEKLAELYEKFKALREKALEVLKKAVEALENKADKETLLKLIKELKELAEKFEELAEEFERNAGESTTASLNATAAYMARIGLLAALLALAKAAGVPEEELEEIKRRIEETAKRAIEAAERLKALAEARGDTKHVAVGVEAVRMATELYELAQKIIDAF
Kd (neuropeptide Y (NPY) [12]): 3500 nM
